T1: human NKp30-his protein (KACTUS; Cat: NKP-HM430) (human, UniProt O14931 19-135, limits assumed)
T1 construct: Bought protein (KACTUS NKP-HM430); not shown: His tag
T1 sequence (looked up): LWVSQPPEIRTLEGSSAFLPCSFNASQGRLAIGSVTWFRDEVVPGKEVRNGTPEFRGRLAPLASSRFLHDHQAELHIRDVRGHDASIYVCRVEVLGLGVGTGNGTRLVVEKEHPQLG

B1: antibody 10-hu4 (antibody, V domains shown)
VH: EVQLVESGGGLVQPGGSLRLSCAASGITFSRSVMGWFRQAPGKLRELVAGITSDDNTDYADSVKGRFTISRDNSKNTLYLQMNSLRAEDTAVYYCNILPDSRLGWGQGTLVTVSS
B2: antibody 10 (antibody, V domains shown)
VH: QVQLVESGGGLVQPGGSLTLSCAVSGITFSRSVMGWFRQAPGKLRELVAGITSDDNTDYADSVKGRFTISRDNAKNTVYLQMNSLKPEDTAVYYCNILPDSRLGWGQGTQVTVSS
notes: expressed in CHO cells; also called chimeric antibody 10
B3: antibody 10-hu2 (antibody, V domains shown)
VH: EVQLVESGGGLVQPGGSLRLSCAASGITFSRSVMGWFRQAPGKLRELVAGITSDDNTDYADSVKGRFTISRDNSKNTLYLQMNSLRAEDTAVYYCARLPDSRLGWGQGTLVTVSS
B4: antibody 10-hu1 (antibody, V domains shown)
VH: EVQLVESGGGLVQPGGSLRLSCAASGITFSRSVMGWFRQAPGKLRELVSGITSDDNTDYADSVKGRFTISRDNSKNTLYLQMNSLRAEDTAVYYCARLPDSRLGWGQGTLVTVSS
B5: antibody 10-hu3 (antibody, V domains shown)
VH: EVQLVESGGGLVQPGGSLRLSCAASGITFSRSVMGWFRQAPGKLRELVAGITSDDNTDYADSVKGRFTISRDNSKNTLYLQMNSLRAEDTAVYYCAILPDSRLGWGQGTLVTVSS
B6: antibody 10-hu5 (antibody, V domains shown)
VH: EVQLVESGGGLVQPGGSLRLSCAVSGITFSRSVMGWFRQAPGKLRELVAGITSDDNTDYADSVKGRFTISRDNSKNTLYLQMNSLRAEDTAVYYCNILPDSRLGWGQGTLVTVSS
B7: antibody 18-hu1 (antibody, V domains shown)
VH: EVQLVESGGGLVQPGGSLRLSCAASGIRFSIANMGWYRQAPGKLHEMVSGITSDGFTNYADSVKGRFTISRDNSKNTLYLQMNSLRAEDTAVYYCAKFPTRHYWGQGTLVTVSS
B8: antibody 18-hu2 (antibody, V domains shown)
VH: EVQLVESGGGLVQPGGSLRLSCAASGIRFSIANMGWYRQAPGKLHEMVAGITSDGFTNYADSVKGRFTISRDNSKNTLYLQMNSLRAEDTAVYYCAKFPTRHYWGQGTLVTVSS
B9: antibody 21 (antibody, V domains shown)
VH: EVQLVESGGGLVQPGGSLRLSCAASGSTYAFYNMGWFRQRPGKEREFAAAILWGRSGVYTTYADSVKGRFTISRDNAQNTVYLQMNSLKPEDTAVYYCAAGLGTMRANEYDYWGQGTQVTVSS
notes: expressed in CHO cells
B10: antibody 12 (antibody, V domains shown)
VH: EVQLVESGGDLVQPGGSLRLSCAAFGSSFSIDMMGWYRQVPGKQRELVAGITKGGFADYADSVKGRFTISMDAAKNTVYLQMNSLKPEDTAVYYCNTLPTHSDWGQGTQVTVSS
notes: expressed in CHO cells
B11: antibody 19 (antibody, V domains shown)
VH: EVQVVESGGDLVQPGGSLRLSCAAFGSSFSIDMMGWYRQVPGKQRELVAGITKGGFADYADSVKGRFTISMDAAKNTVYLQMNSLKPEDTAVYYCNTLPTHSDWGQGTQVTVSS
notes: expressed in CHO cells
B12: antibody 11 (antibody, V domains shown)
VH: EVQLVESGGGLVQPGESLRLSCVASGGDFRFKSMGWYRQAPGKLRELVAGITTGGVTDYADSVKGRFTISRDNANKAVWLQMNRLKPDDTAVYDCNTLGAAAYDWGQGTQVTVSS
notes: expressed in CHO cells
B13: antibody 13 (antibody, V domains shown)
VH: EVQLVESGGGLVQPGGSLRLSCAASGGIFGSTHMGWYRQAPGKLREMVAGITSTGNHRNVADSVKGRFTISKDNAKNTLYLQMNSLKPEDTAVYYCNSFPDQVFNWGQGTQVTVSS
notes: expressed in CHO cells
B14: antibody 7 (antibody, V domains shown)
VH: EVQVVESGGGLVQAGGSLRLSCAASGRTFSNYNVGWFRQAPGKEREFLATISESGGSTYYADSVKGRFTISRDNGINMVYLQMSSLKPEDTAVYYCAESRIFSFSYADGRGYAYWGQGTQVTVFS
notes: expressed in CHO cells
B15: antibody 22 (antibody, V domains shown)
VH: QVQLVESGGGLVQPGGSLRLSCAASGSIFSANVMGWYRQAPGKLRELVAGMHSGGSANYADSVKGRFTISKDNAKNTMYLQMNSLKPEDTAVYYCNFGLGFDGHDYWGQGTQVTVSA
notes: expressed in CHO cells
B16: antibody 15 (antibody, V domains shown)
VH: EVQLVESGGGSVQTGGSLRLSCAASGPTFNFYGMAWFRQAPGKEREFVASIIPGSGDTSYASSVRGRFTISEDNARNNAYLQMNTLKPEDTAVYYCAAGTGGIYSSDYPYWGQGTQVTVSS
notes: expressed in CHO cells
B17: antibody 5 (antibody, V domains shown)
VH: EVQVVESGGGLVQAGGSLTLSCAASGRPFSTFPTSMGWFRQAPGKEREFVAAISESGLNTYYRDSVKGRFGISRDNAKNTVYLQMNTLTAEDTAVYFCAAAPGYMTTDSQYYLGNKYQYWGQGTQVTVSS
notes: expressed in CHO cells
B18: antibody 16 (antibody, V domains shown)
VH: EVQLVESGGGLVQAGGSLRLSCAASGISLITYNMGWYRQAPGKLRELVAGITTGGITDYTDSVKGRFTISRDNAKNTLYLQMNSLKPEDTAVYYCDTLGMANYWGQGTQVTVSS
notes: expressed in CHO cells
B19: antibody 9 (antibody, V domains shown)
VH: QVQLVESGGGSVQAGGSLRLSCAASGRTFSDYVMGWFRQAPGKEREFVGTITRIGGMPYYADFVKGRFTISRDYAKNAGYLQLNNLKPEDTALYYCALDLRLRLGVTPREYDYWGQGTQVTVSS
notes: expressed in CHO cells
B20: antibody 1 (antibody, V domains shown)
VH: QLQLVESGGGTVQTGGSLRLACVVSGPTYSFYDMGWFRRAPGKEREFVAAVTASGDTTIYADSVKGRFTIARDNAKNTVYLQMNSLKSEDTGAYYCAAGEYSSTAATYYYWGQGTQVTVSS
notes: expressed in CHO cells
B21: antibody 8 (antibody, V domains shown)
VH: QVQLVESGGGLVQTGDSLRLSCAASGRTYDNYAMGWFRQAPGKEREFVAAFSQNGGRTDYADSVKGRFAISDDRSTVHLDMNSLLPEDTAVYYCAARPPAYFSNAVYSKVDEYRYWGQGTQVTVSS
notes: expressed in CHO cells
B22: antibody 6 (antibody, V domains shown)
VH: QVQLVESGGGLVQPGGSLRLSCAASRAIFPEYSIAWFRQAPGKEREGVALVSRIGDRVDYADSVKGRFTISRDNAKNTVYLQMNSLKPEDTAVYHCAAGQLSSSTYYGDEYVYWGQGTQVTVSS
notes: expressed in CHO cells
B23: antibody 2 (antibody, V domains shown)
VH: QVQLVESGGGLVQPGGSLRLSCAASGSIFSVNEMGWYRQAPGKLRELVAAITSDGTTAYADSVKGRFTISRDNAKNTVYLQMNSLKPEDTAVYDCNTWPEARGDWGQGTQVTVSS
notes: expressed in CHO cells
B24: antibody 14 (antibody, V domains shown)
VH: QLQLVESGGGLVQPGGSLRLSCAVSASIFSVNEMGWYRQAPGKLRELVAAITSDGTTAYADSVKGRFTISRDNAKNTVYLQMNSLKPEDTAVYDCNTWPQARGDWGQGTQVTVSS
notes: expressed in CHO cells
B25: antibody 3 (antibody, V domains shown)
VH: QLQLVESGGGLVQTGDSTKLSCTASGRSFSINDMGWYRQAPGKLRELVAGITSGGSTNYADSVKGRFTISRDNAKNTVYLQMNSLKPEDTAVYYCNVLGWPDFGSWGQGTQVTVSS
notes: expressed in CHO cells
B26: antibody 20 (antibody, V domains shown)
VH: EVQLVESGGGLVQPGGSLRLSCAASGSAFSIEPWGWYRQAPGQLRELVAGITSDDKTDYADSVKDRFTISRDNAKNTVFLQMNSLKPEDTAVYYCNVLGWPRDDYWGQGTQVTVSS
notes: expressed in CHO cells
B27: antibody 17 (antibody, V domains shown)
VH: QLQLVESGGGLVQPGGSLRLSCAASGSIDSINAMGWYRQAPGKLRELVAGITRGGDVNYADSVKGRFTISRVDARNTVTVYLQMNSLKPEDTAVYYCNNLGFPSDWAQGTQVTVSS
notes: expressed in CHO cells
B28: antibody 4 (antibody, V domains shown)
VH: QVQLVESGGGLVQPGGSLRLSCAASGSIFKINAMGWYRQAPGKLRELVAGITSGGSTNYADSVKGRFTISRDNAKNTLYLQMNSLKPDDTAVYYCNQLGFPQYWGQGTQVTVSS
notes: expressed in CHO cells

target: T1, human NKp30-his protein (KACTUS; Cat: …); test: ELISA, Human-NKp30-His coated at 0.2 µg/mL, antibody from 10 µg/mL in 3-fold steps, goat anti-human Fc, OD450 (Example 11)
Description: Human-NKp30-His (purchased from KACTUS, item No. NKP-HM430) was diluted to 0.2 μg/mL with the coating solution (1×PBS, pH 7.4), and was coated into 96-well enzyme-labelled plates at 100 μL/well and allowed to stand overnight at 4° C. The coating solution was poured off, the plate was washed with 1×PBST at 300 μL/well, washed with a plate washer for 4 times, and patted dry on a plate paper. The plate was blocked with 3% skimmed milk powder at 300 μL/well, and incubated at 37° C. for 1 h. The blocking solution was poured off, washed with a plate washer for 4 times, and patted dry on a plate paper. The reference product and the test product were diluted with 3% skimmed milk powder to 10 μg/mL, and the initial concentration was diluted by 3 times. A total of 11 gradients were diluted, and another blank well was set, and only diluent was added. It was incubated at 37° C. and 100 μL/well for 1 h. Liquid in the wells was discarded, and washed with a plate washer for 4 times, and patted dry on a plate paper. The goat anti-human Fc was diluted with 3% skimmed milk powder at 1: 20,000 and 100 μL/well, and incubated at 37° C. for 1 h. The plate was washed with a plate washer for 6 times, and patted dry on a plate paper. TMB color developing solution was added at 100 μL/well, and wrapped with an aluminum foil, and the color was developed at 37° C. for 8 minutes, protected from light. The termination solution 1 M HCl was added at 100 μL/well to terminate the color development reaction. It was read at 450 nm on an enzyme-labeled instrument.

In order of falling EC50:
1. B4  0.378 µg/mL
2. B7  0.0348 µg/mL
3. B3  0.0246 µg/mL
4. B5  0.0118 µg/mL
5. B8  0.0105 µg/mL
6. B6  0.0104 µg/mL
7. B1  0.00719 µg/mL
8. B2  0.00522 µg/mL

target: T1, human NKp30-his protein (KACTUS; Cat: …); test: BLI (Octet Red96e), antibody captured on AHC sensor, 100 nM human NKp30-his in solution, 1:1 fit
Description: After equilibration of the AHC sensor with 0.02% PBST (0.02% Tween 20, pH 7.4, 1*PBS) as buffer for 60 s, the NKp30 antibody in the sample plate was immobilized for 300 s and second equilibration was performed for 180 s. […] human NKp30-his protein (KACTUS; Cat: NKP-HM430) was bound with NKp30 antibody for 300 s and then dissociated for 600 s. After dissociation, 10 mM glycine (pH 2.0) was used as regeneration buffer to regenerate for 30 s.
Subtract the result plot for reference channel H1 from the test result plot. The experimental data fit the 1:1 binding model. The molecular weight of 35 kDa was used to calculate the molar concentration of human NKp30 protein.

In order of rising Kd:
1. B2  0.201 nM
2. B16  0.347 nM
3. B13  0.433 nM
4. B10  0.491 nM
5. B23  0.597 nM
6. B18  0.997 nM
7. B26  1.25 nM
8. B27  1.26 nM
9. B24  1.35 nM
10. B20  1.46 nM
11. B11  1.81 nM
12. B25  2.07 nM
13. B15  2.31 nM
14. B22  2.88 nM
15. B12  3.06 nM
16. B28  4.97 nM
17. B19  5.56 nM
18. B21  9.11 nM
19. B14  9.64 nM
20. B9  20.1 nM
21. B17  104 nM
